Biological target: the molecule itself
Test: cryo-EM structure; α and β mixed 1:1.5 (α:β) with 1 mM dATP and 1 mM CDP on ice in 50 mM HEPES pH 7.6, 15 mM MgCl2, 1 mM EDTA; chameleon 54 ms dispense-to-plunge, 6 mg/mL protein (4.3 Å); also Vitrobot grid, 0.5 mg/mL (5.6 Å); dATP-inactivating conditions

B1: Neisseria gonorrhoeae class Ia ribonucleotide reductase NrdB (β) subunit, hydroxyurea-inactivated (met-β2) (enzyme, UniProt A0ACH0F974 1-377, looked up)
chain: MSYSTFPKTKNDALKEPMFFGQPVNVARYDQQKYEVFEKLIEKQLSFFWRPEEIDVSRDRIDYANLPEHEKHIFISNLKYQTLLDSIQGRSPNVALLPLVSIPELETWVETWSFSETIHSRSYTHIIRNIVNDPSVVFDDIVENEYITARAEDIACYYDDLIEYTQYYNLLGEGVHNVGGKPVTVSLRGLKKKLYLCLMCVNVLEAIRFYVSFACSFAFAERELMEGNAKIIKLIARDEALHLTGTQHMLNLMRSGVDDPEMAEIAAELQDECFQLFKKAAEQEKEWAAYLFKDGSMIGLNKEILSQYVEYITNLRMQAVGLPAGFEGANQNPIPWINAWLSSDNVQVAPQEVEISSYLIGQIDSEVNTDDLGDFEL
notes: N. gonorrhoeae class Ia RNR radical-generating subunit NrdB (β); 377 residues as printed (model holds four residues of the histidine tag, residues 1-346 and 374-376 of 377); expected MW 43253 Da; met-β2: diiron cluster reconstituted (1.8 +/- 0.3 iron per monomer), tyrosyl radical quenched with hydroxyurea; also called NgRNR β; His6-TEV-NgRNR β; source: E. coli T7 Express, pET30a(+), purified …
**Q.** Does B1 bind?
**A.** Result: binds

Reference: publication PMC8994553, “Effects of chameleon dispense-to-plunge speed on particle concentration, complex formation, and final resolution: A case study using the Neisseria gonorrhoeae ribonucleotide reductase inactive complex” (Journal of structural biology, 2021)
